For one assay, the target named is T1, PKC-ε (Homo sapiens, UniProt Q02156).
T1 sequence (Q02156 1-737): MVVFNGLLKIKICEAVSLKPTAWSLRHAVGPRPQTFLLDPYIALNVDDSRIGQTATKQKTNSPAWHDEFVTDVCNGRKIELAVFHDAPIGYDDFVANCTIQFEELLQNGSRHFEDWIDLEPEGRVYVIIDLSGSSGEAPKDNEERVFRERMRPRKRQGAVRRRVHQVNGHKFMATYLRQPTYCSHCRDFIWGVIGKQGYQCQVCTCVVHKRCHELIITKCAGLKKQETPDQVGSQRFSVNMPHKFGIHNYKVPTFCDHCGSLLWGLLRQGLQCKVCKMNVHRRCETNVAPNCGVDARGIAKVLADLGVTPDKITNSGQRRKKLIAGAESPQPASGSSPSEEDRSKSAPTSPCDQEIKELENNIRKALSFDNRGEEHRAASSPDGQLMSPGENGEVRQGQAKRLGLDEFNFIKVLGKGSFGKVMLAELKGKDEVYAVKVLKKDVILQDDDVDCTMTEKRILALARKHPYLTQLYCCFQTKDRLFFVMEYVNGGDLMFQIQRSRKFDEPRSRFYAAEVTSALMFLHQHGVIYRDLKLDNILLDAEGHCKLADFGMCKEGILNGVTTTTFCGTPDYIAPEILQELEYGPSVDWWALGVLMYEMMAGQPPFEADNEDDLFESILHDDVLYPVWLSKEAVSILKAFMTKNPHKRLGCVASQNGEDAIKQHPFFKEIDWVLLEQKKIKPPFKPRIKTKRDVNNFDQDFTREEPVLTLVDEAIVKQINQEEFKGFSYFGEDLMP
As to the kind of experiment: ELISA-based competitive binding assay with purified PKC isoform. The note with it: for inhibition at 50 µM / inhibition at 100 µM / calculated binding capacity (100-% n, DMSO apparent binding subtracted): purified PKC-ε; for inhibition at 50 µM / inhibition at 100 µM: read-out: calculated binding capacity (100-% n, DMSO apparent binding subtracted); for Affinity for PKC isoform ε: Purified isoform. More on the design: key to Affinity for PKC isoform ε: —: no detectable affinity; Low to very low affinity at 10X or 20X or both PRE concentrations in at least one cell line in the cell extract assay; Low affinity in purified isoform assay.; Moderate affinity at 10X or 20X or both PRE concentrations in at least one cell line in the cell extract assay.; High affinity at 10X or 20X or both PRE concentrations in at least one cell line in the cell extract assay; High affinity in purified isoform assay. The method, then: (§1) Peptides PRE 1, 2, 3, 4, 5, 6, 7, 8, 9, 10, 11, 12 and 13 (see Table 3) were tested for their ability to interfere with binding of PKC isoform-specific antibodies to their target PKC isoforms using a competitive binding assay and purified PKC isoforms.
(§2) Procedure: Competitive binding was assessed using a 96 well plate ELISA-based assay as described below.
(§3) Greiner 96 well ELISA plates were coated with the appropriate PKC isoform diluted in PBSN (PBS with Calcium/Magnesium+0.05% Sodium azide w/w). 50 μL/well at 250 ng/mL was used. Control wells contained PBSN only. Plates were incubated overnight at 4° C.
(§4) The plates were washed 3 times with 200 μL of dH2O per well, then 100 μL of blocking solution was added per well and the plate incubated for 1 h at 37° C. The washing steps with dH2O were repeated and 50 μL of the appropriate PRE solution (PRE stock solution [20 mM in DMSO] diluted in PBSN) was added and the plate incubated for 1 h at room temperature.
(§5) After incubation, 5 μL of 1.1:400 anti-PKC (isoform specific antibody) was added per well (to provide a final concentration of 1:4000). For PKC-epsilon, 1.1:800 dilution was used and for PKC-zeta a 1.1:100 dilution was used due to high and low binding affinity, respectively. The plates were then incubated 1 h at room temperature, followed by washing with dH2O as described above.
(§6) 50 μL of 1:1000 dilution of Alkaline Phosphatase (AP) conjugated antibody (anti-rabbit for all except zeta, which was anti-goat) was then added and the plate incubated for 1 h at room temperature. Washing with dH2O was then repeated. Finally, 100 μL of pNPP solution in pNPP buffer (2 mM MgCl2, 100 mM Sodium bicarbonate in water, pH 9.8) was added to all wells and incubated for 8 minutes for α, βI, βII ε, and ζ, or for 15-20 mins for δ (until sufficient coloration is observed). The reaction was stopped by addition of Stop solution (2N NaOH) and the absorbance at 405 nm was read on a Galaxy Plate reader.
(§7) Controls were PKC without PRE; blank controls, and controls containing the final concentrations of DMSO used for solubilizing the PREs. The non-specific binding capacity related to DMSO was also measured.
(§8) The antibodies used were as follows: anti-PKC α (Cat. No. SC-208); anti-PKC βI (Cat. No. SC-209); anti-PKC βII (Cat. No. SC-210); anti-PKC δ (Cat. No. SC-213); anti-PKC ε (Cat. No. SC-214); anti-PKC ζ (Cat. No. SC-216-G) (all from Santa Cruz Biotechnology, Inc.). The AP-conjugated antibodies were obtained from Jackson Immuno Research Laboratories (West Grove, Pa.).
(§9) Calculations: The OD values measured at 405 nm represent the free PKC coated per well.
(§10) OD405 PKC alone−Blank OD405 of each sample=OD405 coated isoform
(§11) (OD405 of sample X/OD405 coated isoform)×100=% n that represents the percentage of X binding compared to control.
(§12) 100-% n measures the relative binding capacity of X towards the tested isoform.
(§13) The apparent binding capacity of the DMSO samples was then subtracted from X binding capacity.
(§14) All measurements were made in triplicate and the values in the table represent the averaged calculated binding capacity values after subtraction of the DMSO apparent binding capacity (averaged from 12 values, respectively 10.80, 11.20 and 16.40 corresponding to the concentrations of DMSO used to dilute the […] at 200, 100 and 50 μM respectively). The results allow for quantitative comparison of the binding capacity of each PRE towards an individual isoform within each table, but not among isoforms due to differences in sensitivity of the specific antibodies toward the secondary antibody. This applies particularly to PKC-delta. As noted above, the colour development duration was increased 2-3 times and, as a result, the OD405 measurements may be overestimated for this isoform.

Another assay has as its target PKC-δ (Homo sapiens, UniProt Q05655). The assay is described as above. Details: key to Affinity for PKC isoform δ: —: no detectable affinity; Low to very low affinity at 10X or 20X or both PRE concentrations in at least one cell line in the cell extract assay; Low affinity in purified isoform assay.; Moderate affinity at 10X or 20X or both PRE concentrations in at least one cell line in the cell extract assay.; High affinity at 10X or 20X or both PRE concentrations in at least one cell line in the cell extract assay; High affinity in purified isoform assay. Conditions: for Affinity for PKC isoform δ: Purified isoform. The procedure:
as §1, §2, §3, §4, §5, §6, §7, §8, §9, §10, §11, §12, §13, §14

Where a SMILES comes first, the peptide text is derived from it. [ ]: non-standard residue; d: D form.

PKC-δ, sequence (Q05655 whole entry, canonical isoform): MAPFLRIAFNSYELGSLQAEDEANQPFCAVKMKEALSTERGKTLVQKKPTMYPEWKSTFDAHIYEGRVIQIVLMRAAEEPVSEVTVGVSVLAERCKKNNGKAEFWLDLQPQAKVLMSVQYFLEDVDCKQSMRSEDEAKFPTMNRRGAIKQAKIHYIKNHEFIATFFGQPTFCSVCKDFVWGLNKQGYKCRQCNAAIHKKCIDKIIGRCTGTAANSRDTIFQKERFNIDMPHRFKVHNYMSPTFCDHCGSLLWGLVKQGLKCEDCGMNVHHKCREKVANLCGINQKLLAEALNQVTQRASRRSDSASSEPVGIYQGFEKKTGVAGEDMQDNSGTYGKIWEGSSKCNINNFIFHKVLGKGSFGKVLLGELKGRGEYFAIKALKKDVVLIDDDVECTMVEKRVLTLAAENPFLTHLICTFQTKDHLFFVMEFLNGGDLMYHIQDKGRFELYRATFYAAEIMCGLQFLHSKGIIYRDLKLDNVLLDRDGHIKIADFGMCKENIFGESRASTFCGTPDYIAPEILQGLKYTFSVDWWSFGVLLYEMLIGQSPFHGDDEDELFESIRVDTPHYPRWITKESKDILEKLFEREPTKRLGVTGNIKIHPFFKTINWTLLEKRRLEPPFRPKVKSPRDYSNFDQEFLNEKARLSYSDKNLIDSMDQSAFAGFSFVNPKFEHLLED

Consider `CC[C@H](C)[C@H](NC(=O)[C@H](CO)NC(=O)[C@@H](NC(=O)CNC(=O)[C@@H](NC(=O)[C@H](CC(C)C)NC(=O)[C@H](CC(N)=O)NC(=O)[C@H](CCC(N)=O)NC(=O)[C@H](C)NC(=O)[C@H](CC(=O)O)NC(=O)[C@H](CCCCN)NC(C)=O)[C@@H](C)CC)[C@@H](C)CC)C(N)=O` [PRE 4, Ac-KDAQNLIGISI-NH2] (Ac-KDAQNLIGISI-NH2), for which, on PKC-ε (PRE 50 μM), the inhibition at 50 µM is 0%. The inhibition at 100 µM on PKC-ε (PRE 100 μM) was 0%. In addition, the “Affinity for PKC isoform ε” value on PKC-ε is “—”. Moreover, the “Affinity for PKC isoform δ” value on PKC-δ is listed as “H”.
Turning to `CC[C@H](C)[C@H](NC(=O)[C@H](CO)NC(=O)[C@@H](NC(=O)CNC(=O)[C@@H](NC(=O)[C@H](CC(C)C)NC(=O)[C@H](CC(N)=O)NC(=O)[C@H](CCC(N)=O)NC(=O)[C@H](C)NC(=O)[C@H](CC(=O)O)NC(=O)[C@H](CCCCN)NC(=O)CNC(=O)CNC(=O)[C@H](CCCCN)NC(=O)[C@@H](NC(=O)[C@H](CCC(=O)O)NC(=O)[C@H](CCC(N)=O)NC(=O)[C@@H](NC(=O)CNC(=O)[C@H](CCCCN)NC(=O)[C@H](C)NC(C)=O)[C@@H](C)CC)C(C)C)[C@@H](C)CC)[C@@H](C)CC)C(N)=O` [PRE 5] (Ac-AKGIQEVKGGKDAQNLIGISI-NH2), the inhibition at 50 µM at PKC-ε (PRE 50 μM) was 0%; at PKC-δ (PRE 50 μM, purified PKC-δ (may be overestimated), read-out: calculated binding capacity (100-% n, DMSO apparent binding subtracted)), 0.2%. The inhibition at 100 µM is 0% at PKC-ε (PRE 100 μM) and 0% on PKC-δ (PRE 100 μM, purified PKC-δ (may be overestimated), read-out: calculated binding capacity (100-% n, DMSO apparent binding subtracted)). Also, the “Affinity for PKC isoform ε” value on PKC-ε is “—”. Also, on PKC-δ, the “Affinity for PKC isoform δ” value is given as “L”.
As to Ac-RDAQNLIGISI-NH2 [PRE 11], the “Affinity for PKC isoform ε” value with PKC-ε is recorded as “L”. In addition, in the assay with PKC-δ, the “Affinity for PKC isoform δ” value is “H”.
Consider Ac-ISIGILNQADK-NH2 [PRE 10], for which the “calculated binding capacity (100-% n, DMSO apparent binding subtracted)” value in the assay with PKC-ε (PRE 50 μM) is on record as 0.91%; in the assay with PKC-ε (PRE 200 μM) it was 1.75%. The “Affinity for PKC isoform ε” value with PKC-ε is “—”. Also, the “Affinity for PKC isoform δ” value with PKC-δ is “—”.
For `CC[C@H](C)[C@H](NC(=O)[C@H](CO)NC(=O)[C@@H](NC(=O)CNC(=O)[C@@H](NC(=O)[C@H](CC(C)C)NC(=O)[C@H](CC(N)=O)NC(=O)[C@H](CCC(N)=O)NC(=O)[C@H](C)NC(=O)[C@H](CC(=O)O)NC(=O)CNC(=O)CNC(=O)[C@H](CCCCN)NC(=O)[C@@H](NC(=O)[C@H](CCC(=O)O)NC(=O)[C@H](CCC(N)=O)NC(=O)[C@@H](NC(=O)CNC(=O)[C@H](CCCCN)NC(=O)[C@H](C)NC(C)=O)[C@@H](C)CC)C(C)C)[C@@H](C)CC)[C@@H](C)CC)C(N)=O` [PRE 3] (Ac-AKGIQEVKGGDAQNLIGISI-NH2), the “Affinity for PKC isoform ε” value on PKC-ε is reported as “H”. Further, on PKC-δ, the “Affinity for PKC isoform δ” value was “H”.
Regarding Ac-KDAQNLI-NH2 [PRE 12], the “Affinity for PKC isoform ε” value with PKC-ε is listed as “—”. For the same compound, in the assay with PKC-δ, the “Affinity for PKC isoform δ” value is “L”.
With RRKKGGKDFVVKR [PRE 1], the “calculated binding capacity (100-% n, DMSO apparent binding subtracted)” value with PKC-ε (PRE 100 μM) is 5.47%; with PKC-ε (PRE 200 μM), 0.83%. Moreover, the “Affinity for PKC isoform ε” value with PKC-ε is given as “—”. Further, the “Affinity for PKC isoform δ” value with PKC-δ is reported as “H”.
On to “Ac-ISIGILQNADK-NH2 (not fully specified; printed as Ac-ISIGILQNADK-NH2) [PRE 7]”, for which the “Affinity for PKC isoform ε” value in the assay with PKC-ε is “L”. Moreover, in the assay with PKC-δ, the “Affinity for PKC isoform δ” value was “—”.
With “Ac-isigilqnadk-NH2 (Ac-[dI][dS][dI]G[dI][dL][dQ][dN][dA][dD][dK]-NH2; SMILES CC[C@@H](C)[C@@H](NC(C)=O)C(=O)N[C@H](CO)C(=O)N[C@@H](C(=O)NCC(=O)N[C@@H](C(=O)N[C@H](CC(C)C)C(=O)N[C@H](CCC(N)=O)C(=O)N[C@H](CC(N)=O)C(=O)N[C@H](C)C(=O)N[C@H](CC(=O)O)C(=O)N[C@H](CCCCN)C(N)=O)[C@H](C)CC)[C@H](C)CC) [PRE 9]”, the “calculated binding capacity (100-% n, DMSO apparent binding subtracted)” value with PKC-ε (PRE 50 μM) was 16.35%; with PKC-ε (PRE 100 μM), 8.53%; with PKC-δ (PRE 50 μM, purified PKC-δ (may be overestimated)) it was 16.23%; in the assay with PKC-δ (PRE 100 μM, purified PKC-δ (may be overestimated)), 19.27%; in the assay with PKC-δ (PRE 200 μM, purified PKC-δ (may be overestimated)) it was 9.95%. Besides, the “Affinity for PKC isoform ε” value with PKC-ε is listed as “L”. Besides, the “Affinity for PKC isoform δ” value in the assay with PKC-δ is recorded as “L”.
Consider Ac-RDAQNLI-NH2 [PRE 13], for which the “Affinity for PKC isoform ε” value with PKC-ε is “—”. The “Affinity for PKC isoform δ” value with PKC-δ was “L”.
For the compound ILEDKGGDAQNLIGISI [PRE 8], the “Affinity for PKC isoform ε” value with PKC-ε is recorded as “—”. Besides, the “Affinity for PKC isoform δ” value with PKC-δ is recorded as “—”.
As to Ac-KDANQLIGISI-NH2 [PRE 6], the “calculated binding capacity (100-% n, DMSO apparent binding subtracted)” value with PKC-ε (PRE 50 μM) is 2.61%; with PKC-ε (PRE 100 μM), 0.46%. The “Affinity for PKC isoform ε” value with PKC-ε is “—”. The “Affinity for PKC isoform δ” value with PKC-δ is listed as “L”.
